Laboratory results taken from publication PMC4785722 (Journal of molecular biology, 2009).

Molecular target: the molecule itself
Assay: native MS

B1: bacteriophage MS2 coat protein dimer (natural protein)
chain: ASNFTQFVLVDNGGTGDVTVAPSNFANGVAEWISSNSRSQAYKVTCSVRQSSAQNRKYTIKVEVPKVATQTVGGVELPVAAWRSYLNMELTIPIFATNSDCELIVKAMQGLLKDGNPIPSAIAANSGIY
  stoichiometry N: 10 CP2 dimers
